Laboratory results reported in paper PMC10767699, “Custom Design of a Humidifier Chamber for InMeso Crystallization” (Crystal Growth & Design, 2023).

Molecular target: the molecule itself
Assay: crystal structure; in meso (monoolein mesophase) crystallization of apo GltTk, 21 °C; space groups H3_(2) and P6_(3)22; one protomer in the asymmetric unit, trimer generated by crystal symmetry

B1: transmembrane aspartate transporter GltTk from Thermococcus kodakarensis (natural protein)
chain: MGKSLLRRYLDYPVLWKILWGLVLGAVFGLIAGHFGYAGAVKTYIKPFGDLFVRLLKMLVMPIVLASLVVGAASISPARLGRVGVKIVVYYLATSAMAVFFGLIVGRLFNVGANVNLGSGTGKAIEAQPPSLVQTLLNIVPTNPFASLAKGEVLPVIFFAIILGIAITYLMNRNEERVRKSAETLLRVFDGLAEAMYLIVGGVMQYAPIGVFALIAYVMAEQGVRVVGPLAKVVGAVYTGLFLQIVITYFILLKVFGIDPIKFIRKAKDAMITAFVTRSSSGTLPVTMRVAEEEMGVDKGIFSFTLPLGATINMDGTALYQGVTVLFVANAIGHPLTLGQQLVVVLTAVLASIGTAGVPGAGAIMLAMVLQSVGLDLTPGSPVALAYAMILGIDAILDMGRTMVNVTGDLAGTVIVAKTEKELDESKWISHHHHHHHH
stoichiometry N: 3
